Assay [1] deals with T1, human FcγRIIb constitutively expressed on MDCK cells (human, UniProt P31994 43-310).
T1 sequence (looked up): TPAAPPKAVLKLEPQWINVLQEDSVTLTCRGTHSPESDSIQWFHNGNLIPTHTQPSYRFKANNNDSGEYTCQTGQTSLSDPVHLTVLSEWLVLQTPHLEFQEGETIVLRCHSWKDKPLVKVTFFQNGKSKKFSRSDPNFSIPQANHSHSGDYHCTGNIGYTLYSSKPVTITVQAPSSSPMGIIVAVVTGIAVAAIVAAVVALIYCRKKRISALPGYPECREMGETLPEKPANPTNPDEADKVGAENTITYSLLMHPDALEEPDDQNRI
Description: cell-based or functional assay.

Assay [2] has as its target T2, soluble mouse FcγRII, His-tagged (mouse, UniProt P08101 30-210, limits assumed).
T2 construct: Captured on the chip through an anti-His antibody
T2 sequence (looked up): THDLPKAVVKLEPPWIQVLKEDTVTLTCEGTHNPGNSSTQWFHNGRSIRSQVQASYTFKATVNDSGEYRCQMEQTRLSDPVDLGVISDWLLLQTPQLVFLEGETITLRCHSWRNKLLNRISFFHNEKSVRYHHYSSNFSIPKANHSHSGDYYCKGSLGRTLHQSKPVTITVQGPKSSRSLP
The assay can be described thus: SPR, mouse FcγRII captured via His-tag, antigen-antibody complex injected, pH 7.4, 25 C. As to the method:
Regarding the produced Fc region variant-containing antibodies, binding assays between soluble mouse FcγRII and antigen-antibody complexes were performed using BIACORE® T200 (GE Healthcare). Soluble mouse FcγRII was produced in the form of a His-tagged molecule by a method known to those skilled in the art. An appropriate amount of an anti-His antibody was fixed onto Sensor chip CM5 (GE Healthcare) by the amine coupling method using a His capture kit (GE Healthcare) to capture mouse FcγRII. Next, an antibody-antigen complex and a running buffer (as a reference solution) were injected, and interaction was allowed to take place with the mouse FcγRII captured onto the sensor chip. 20 mM N-(2-Acetamido)-2-aminoethanesulfonic acid, 150 mM NaCl, 1.2 mM CaCl₂), and 0.05% (w/v) TWEEN® 20 at pH7.4 was used as the running buffer, and the respective buffer was also used to dilute the soluble mouse FcγRII. To regenerate the sensor chip, 10 mM glycine-HCl at pH1.5 was used. All measurements were carried out at 25° C. […] To calculate the parameters, the BIACORE® T100 Evaluation Software (GE Healthcare) was used.

B1: M103205H795-P1536m/M103202L889-SK1 (antibody, human IgG1, kappa, name in EU numbering)
heavy: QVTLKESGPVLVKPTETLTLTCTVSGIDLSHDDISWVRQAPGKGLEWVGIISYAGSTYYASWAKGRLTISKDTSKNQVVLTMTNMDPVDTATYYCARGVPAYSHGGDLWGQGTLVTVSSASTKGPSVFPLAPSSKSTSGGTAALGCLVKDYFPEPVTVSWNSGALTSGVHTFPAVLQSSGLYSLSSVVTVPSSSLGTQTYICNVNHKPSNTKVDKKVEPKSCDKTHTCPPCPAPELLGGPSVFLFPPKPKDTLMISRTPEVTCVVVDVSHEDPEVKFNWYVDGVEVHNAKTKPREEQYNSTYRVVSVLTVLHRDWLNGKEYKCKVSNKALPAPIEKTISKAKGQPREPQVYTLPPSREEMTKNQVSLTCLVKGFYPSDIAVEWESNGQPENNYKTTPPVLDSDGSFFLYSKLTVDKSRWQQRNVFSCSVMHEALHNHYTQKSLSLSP
light: DIVMTQSPATLSLSPGERATLSCTSSQSVYHANWLSWFQQKPGQPPKLLIYWASTLAYGVPSRFSGSGSGTDFTLTISSLQPEDAATYYCAGGYGGGRYAFGQGTKVEIKRTVAAPSVFIFPPSDEQLKSGTASVVCLLNNFYPREAKVQWKVDNALQSGNSQESVTEQDSKDSTYSLSSTLTLSKADYEKHKVYACEVTHQGLSSPVTKSFNRGEC
notes: copies: 2 + 2
Regarding B1, the “celluar uptake (labelled human latent myostatin taken up as antigen-antibody complex)” value (“celluar uptake” for short) in assay [1] was 2.05 relative to SG1 = 1.00. Also, the “biacore IC binding (relative, SG1 = 1.00)” value in assay [2] was 1.16 relative to SG1.

B2: M103205H795-P1538m/M103202L889-SK1 (antibody, human IgG1, kappa, name in EU numbering)
heavy: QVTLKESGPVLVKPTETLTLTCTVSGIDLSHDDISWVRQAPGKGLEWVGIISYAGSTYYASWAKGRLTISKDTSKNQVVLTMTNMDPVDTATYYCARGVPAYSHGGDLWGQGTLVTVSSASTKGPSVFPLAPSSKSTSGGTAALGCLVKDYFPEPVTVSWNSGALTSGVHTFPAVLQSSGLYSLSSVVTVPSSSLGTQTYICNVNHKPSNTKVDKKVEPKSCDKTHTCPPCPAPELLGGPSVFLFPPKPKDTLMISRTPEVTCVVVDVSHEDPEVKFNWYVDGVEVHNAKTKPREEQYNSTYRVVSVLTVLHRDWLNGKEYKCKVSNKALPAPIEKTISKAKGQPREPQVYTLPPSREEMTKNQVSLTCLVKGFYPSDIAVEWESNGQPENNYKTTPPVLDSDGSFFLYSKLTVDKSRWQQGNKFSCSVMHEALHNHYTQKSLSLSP
light: DIVMTQSPATLSLSPGERATLSCTSSQSVYHANWLSWFQQKPGQPPKLLIYWASTLAYGVPSRFSGSGSGTDFTLTISSLQPEDAATYYCAGGYGGGRYAFGQGTKVEIKRTVAAPSVFIFPPSDEQLKSGTASVVCLLNNFYPREAKVQWKVDNALQSGNSQESVTEQDSKDSTYSLSSTLTLSKADYEKHKVYACEVTHQGLSSPVTKSFNRGEC
notes: copies: 2 + 2
In the case of B2, in assay [1], the “celluar uptake” value is 1.84 relative to SG1 = 1.00. Also, in assay [2], the “biacore IC binding (relative, SG1 = 1.00)” value was 1.11 relative to SG1.

B3: M103205H795-P1543m/M103202L889-SK1 (antibody, human IgG1, kappa, name in EU numbering)
heavy: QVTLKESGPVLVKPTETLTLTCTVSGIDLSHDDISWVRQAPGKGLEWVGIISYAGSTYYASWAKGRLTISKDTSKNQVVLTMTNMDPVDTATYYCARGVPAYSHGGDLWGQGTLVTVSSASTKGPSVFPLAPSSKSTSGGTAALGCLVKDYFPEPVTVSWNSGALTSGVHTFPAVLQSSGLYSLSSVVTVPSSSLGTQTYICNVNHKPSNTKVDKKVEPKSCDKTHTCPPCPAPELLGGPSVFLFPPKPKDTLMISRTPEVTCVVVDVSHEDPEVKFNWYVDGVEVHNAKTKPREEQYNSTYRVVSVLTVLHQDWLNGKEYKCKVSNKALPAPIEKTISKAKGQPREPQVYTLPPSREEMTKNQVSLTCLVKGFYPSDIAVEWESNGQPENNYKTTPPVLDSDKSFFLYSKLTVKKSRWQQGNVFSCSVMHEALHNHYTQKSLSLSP
light: DIVMTQSPATLSLSPGERATLSCTSSQSVYHANWLSWFQQKPGQPPKLLIYWASTLAYGVPSRFSGSGSGTDFTLTISSLQPEDAATYYCAGGYGGGRYAFGQGTKVEIKRTVAAPSVFIFPPSDEQLKSGTASVVCLLNNFYPREAKVQWKVDNALQSGNSQESVTEQDSKDSTYSLSSTLTLSKADYEKHKVYACEVTHQGLSSPVTKSFNRGEC
notes: copies: 2 + 2
With B3, in assay [1], the “celluar uptake” value is 3.7 relative to SG1 = 1.00. Also, the “biacore IC binding (relative, SG1 = 1.00)” value in assay [2] is 1.19 relative to SG1.

B4: M103205H795-P1539m/M103202L889-SK1 (antibody, human IgG1, kappa, name in EU numbering)
heavy: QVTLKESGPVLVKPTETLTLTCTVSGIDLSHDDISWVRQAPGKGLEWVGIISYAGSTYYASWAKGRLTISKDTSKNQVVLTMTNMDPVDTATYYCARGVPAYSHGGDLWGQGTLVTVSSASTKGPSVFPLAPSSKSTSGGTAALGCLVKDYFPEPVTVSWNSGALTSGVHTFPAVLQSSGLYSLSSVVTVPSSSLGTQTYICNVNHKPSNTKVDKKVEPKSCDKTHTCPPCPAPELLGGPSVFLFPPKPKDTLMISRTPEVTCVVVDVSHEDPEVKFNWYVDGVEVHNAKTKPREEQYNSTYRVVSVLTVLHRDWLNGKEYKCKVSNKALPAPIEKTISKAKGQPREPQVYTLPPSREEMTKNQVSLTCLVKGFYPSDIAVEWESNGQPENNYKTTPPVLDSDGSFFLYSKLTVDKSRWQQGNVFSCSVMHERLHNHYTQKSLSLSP
light: DIVMTQSPATLSLSPGERATLSCTSSQSVYHANWLSWFQQKPGQPPKLLIYWASTLAYGVPSRFSGSGSGTDFTLTISSLQPEDAATYYCAGGYGGGRYAFGQGTKVEIKRTVAAPSVFIFPPSDEQLKSGTASVVCLLNNFYPREAKVQWKVDNALQSGNSQESVTEQDSKDSTYSLSSTLTLSKADYEKHKVYACEVTHQGLSSPVTKSFNRGEC
notes: copies: 2 + 2
Consider B4, for which the “celluar uptake” value in assay [1] was 3.2 relative to SG1 = 1.00. In addition, the “biacore IC binding (relative, SG1 = 1.00)” value in assay [2] was 0.9 relative to SG1.

B5: M103205H795-P1542m/M103202L889-SK1 (antibody, human IgG1, kappa, name in EU numbering)
heavy: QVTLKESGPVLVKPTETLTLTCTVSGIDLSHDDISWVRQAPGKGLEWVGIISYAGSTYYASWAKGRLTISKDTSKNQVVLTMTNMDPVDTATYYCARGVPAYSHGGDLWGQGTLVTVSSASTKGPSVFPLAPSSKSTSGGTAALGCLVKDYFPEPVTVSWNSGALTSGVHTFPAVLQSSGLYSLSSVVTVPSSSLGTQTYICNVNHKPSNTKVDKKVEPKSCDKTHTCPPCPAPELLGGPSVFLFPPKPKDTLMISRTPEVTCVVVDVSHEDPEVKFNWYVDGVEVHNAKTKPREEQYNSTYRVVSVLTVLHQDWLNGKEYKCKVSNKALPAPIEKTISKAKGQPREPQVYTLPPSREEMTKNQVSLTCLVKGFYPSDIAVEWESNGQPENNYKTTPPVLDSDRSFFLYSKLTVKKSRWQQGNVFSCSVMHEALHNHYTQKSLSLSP
light: DIVMTQSPATLSLSPGERATLSCTSSQSVYHANWLSWFQQKPGQPPKLLIYWASTLAYGVPSRFSGSGSGTDFTLTISSLQPEDAATYYCAGGYGGGRYAFGQGTKVEIKRTVAAPSVFIFPPSDEQLKSGTASVVCLLNNFYPREAKVQWKVDNALQSGNSQESVTEQDSKDSTYSLSSTLTLSKADYEKHKVYACEVTHQGLSSPVTKSFNRGEC
notes: copies: 2 + 2
Turning to B5, in assay [1], the “celluar uptake” value is 3.32 relative to SG1 = 1.00. Besides, the “biacore IC binding (relative, SG1 = 1.00)” value in assay [2] is 1.21 relative to SG1.

B6: M103205H795-P1537m/M103202L889-SK1 (antibody, human IgG1, kappa, name in EU numbering)
heavy: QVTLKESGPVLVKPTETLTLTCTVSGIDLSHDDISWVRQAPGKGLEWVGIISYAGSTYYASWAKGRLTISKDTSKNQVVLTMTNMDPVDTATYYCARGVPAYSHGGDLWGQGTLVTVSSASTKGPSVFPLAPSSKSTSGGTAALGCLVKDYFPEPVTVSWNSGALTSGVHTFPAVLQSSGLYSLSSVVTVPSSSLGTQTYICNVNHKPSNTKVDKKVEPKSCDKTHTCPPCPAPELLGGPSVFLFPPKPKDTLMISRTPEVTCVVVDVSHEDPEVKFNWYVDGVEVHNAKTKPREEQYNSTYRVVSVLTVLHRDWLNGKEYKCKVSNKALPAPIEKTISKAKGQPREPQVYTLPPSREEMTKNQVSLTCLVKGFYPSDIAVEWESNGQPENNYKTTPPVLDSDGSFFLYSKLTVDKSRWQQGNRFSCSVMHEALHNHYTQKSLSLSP
light: DIVMTQSPATLSLSPGERATLSCTSSQSVYHANWLSWFQQKPGQPPKLLIYWASTLAYGVPSRFSGSGSGTDFTLTISSLQPEDAATYYCAGGYGGGRYAFGQGTKVEIKRTVAAPSVFIFPPSDEQLKSGTASVVCLLNNFYPREAKVQWKVDNALQSGNSQESVTEQDSKDSTYSLSSTLTLSKADYEKHKVYACEVTHQGLSSPVTKSFNRGEC
notes: copies: 2 + 2
Consider B6, for which the “celluar uptake” value in assay [1] is 2.77 relative to SG1 = 1.00. For the same molecule, in assay [2], the “biacore IC binding (relative, SG1 = 1.00)” value is 1.32 relative to SG1.

B7: M103205H795-P1545m/M103202L889-SK1 (antibody, human IgG1, kappa, name in EU numbering)
heavy: QVTLKESGPVLVKPTETLTLTCTVSGIDLSHDDISWVRQAPGKGLEWVGIISYAGSTYYASWAKGRLTISKDTSKNQVVLTMTNMDPVDTATYYCARGVPAYSHGGDLWGQGTLVTVSSASTKGPSVFPLAPSSKSTSGGTAALGCLVKDYFPEPVTVSWNSGALTSGVHTFPAVLQSSGLYSLSSVVTVPSSSLGTQTYICNVNHKPSNTKVDKKVEPKSCDKTHTCPPCPAPELLGGPSVFLFPPKPKDTLMISRTPEVTCVVVDVSHEDPEVKFNWYVDGVEVHNAKTKPREEQYNSTYRVVSVLTVLHRDWLNGKEYKCKVSNKALPAPIEKTISKAKGQPREPQVYTLPPSREEMTKNQVSLTCLVKGFYPSDIAVEWESNGQPENNYKTTPPVLDSKGSFFLYSKLTVKKSRWQQGNVFSCSVMHEALHNHYTQKSLSLSP
light: DIVMTQSPATLSLSPGERATLSCTSSQSVYHANWLSWFQQKPGQPPKLLIYWASTLAYGVPSRFSGSGSGTDFTLTISSLQPEDAATYYCAGGYGGGRYAFGQGTKVEIKRTVAAPSVFIFPPSDEQLKSGTASVVCLLNNFYPREAKVQWKVDNALQSGNSQESVTEQDSKDSTYSLSSTLTLSKADYEKHKVYACEVTHQGLSSPVTKSFNRGEC
notes: copies: 2 + 2
As for B7, the “celluar uptake” value in assay [1] is 7.73 relative to SG1 = 1.00. In addition, the “biacore IC binding (relative, SG1 = 1.00)” value in assay [2] is 1.8 relative to SG1.

B8: M103205H795-P1541m/M103202L889-SK1 (antibody, human IgG1, kappa, name in EU numbering)
heavy: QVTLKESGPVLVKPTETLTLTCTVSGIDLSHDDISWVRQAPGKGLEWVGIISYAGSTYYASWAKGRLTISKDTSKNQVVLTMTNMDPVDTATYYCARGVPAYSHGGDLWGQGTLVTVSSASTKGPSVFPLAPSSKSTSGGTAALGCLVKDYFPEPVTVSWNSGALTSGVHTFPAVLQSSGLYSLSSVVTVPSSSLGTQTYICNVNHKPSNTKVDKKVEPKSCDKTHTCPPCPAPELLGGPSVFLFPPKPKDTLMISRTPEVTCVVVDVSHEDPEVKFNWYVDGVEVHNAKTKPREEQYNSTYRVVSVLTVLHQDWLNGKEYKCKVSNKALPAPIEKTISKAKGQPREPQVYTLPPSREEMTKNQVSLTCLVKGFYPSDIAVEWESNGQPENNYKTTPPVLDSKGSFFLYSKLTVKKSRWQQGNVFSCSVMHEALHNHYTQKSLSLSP
light: DIVMTQSPATLSLSPGERATLSCTSSQSVYHANWLSWFQQKPGQPPKLLIYWASTLAYGVPSRFSGSGSGTDFTLTISSLQPEDAATYYCAGGYGGGRYAFGQGTKVEIKRTVAAPSVFIFPPSDEQLKSGTASVVCLLNNFYPREAKVQWKVDNALQSGNSQESVTEQDSKDSTYSLSSTLTLSKADYEKHKVYACEVTHQGLSSPVTKSFNRGEC
notes: copies: 2 + 2
For the molecule B8, in assay [1], the “celluar uptake” value was 7.17 relative to SG1 = 1.00. Moreover, the “biacore IC binding (relative, SG1 = 1.00)” value in assay [2] was 1.57 relative to SG1.

B9: M103205H795-P1546m/M103202L889-SK1 (antibody, human IgG1, kappa, name in EU numbering)
heavy: QVTLKESGPVLVKPTETLTLTCTVSGIDLSHDDISWVRQAPGKGLEWVGIISYAGSTYYASWAKGRLTISKDTSKNQVVLTMTNMDPVDTATYYCARGVPAYSHGGDLWGQGTLVTVSSASTKGPSVFPLAPSSKSTSGGTAALGCLVKDYFPEPVTVSWNSGALTSGVHTFPAVLQSSGLYSLSSVVTVPSSSLGTQTYICNVNHKPSNTKVDKKVEPKSCDKTHTCPPCPAPELLGGPSVFLFPPKPKDTLMISRTPEVTCVVVDVSHEDPEVKFNWYVDGVEVHNAKTKPREEQYNSTYRVVSVLTVLHRDWLNGKEYKCKVSNKALPAPIEKTISKAKGQPREPQVYTLPPSREEMTKNQVSLTCLVKGFYPSDIAVEWESNGQPENNYKTTPPVLDSDRSFFLYSKLTVKKSRWQQGNVFSCSVMHEALHNHYTQKSLSLSP
light: DIVMTQSPATLSLSPGERATLSCTSSQSVYHANWLSWFQQKPGQPPKLLIYWASTLAYGVPSRFSGSGSGTDFTLTISSLQPEDAATYYCAGGYGGGRYAFGQGTKVEIKRTVAAPSVFIFPPSDEQLKSGTASVVCLLNNFYPREAKVQWKVDNALQSGNSQESVTEQDSKDSTYSLSSTLTLSKADYEKHKVYACEVTHQGLSSPVTKSFNRGEC
notes: copies: 2 + 2
On to B9, for which the “celluar uptake” value in assay [1] was 5.1 relative to SG1 = 1.00. Further, the “biacore IC binding (relative, SG1 = 1.00)” value in assay [2] was 1.41 relative to SG1.

B10: M103205H795-P1544m/M103202L889-SK1 (antibody, human IgG1, kappa, name in EU numbering)
heavy: QVTLKESGPVLVKPTETLTLTCTVSGIDLSHDDISWVRQAPGKGLEWVGIISYAGSTYYASWAKGRLTISKDTSKNQVVLTMTNMDPVDTATYYCARGVPAYSHGGDLWGQGTLVTVSSASTKGPSVFPLAPSSKSTSGGTAALGCLVKDYFPEPVTVSWNSGALTSGVHTFPAVLQSSGLYSLSSVVTVPSSSLGTQTYICNVNHKPSNTKVDKKVEPKSCDKTHTCPPCPAPELLGGPSVFLFPPKPKDTLMISRTPEVTCVVVDVSHEDPEVKFNWYVDGVEVHNAKTKPREEQYNSTYRVVSVLTVLHRDWLNGKEYKCKVSNKALPAPIEKTISKAKGQPREPQVYTLPPSREEMTKNQVSLTCLVKGFYPSDIAVEWESNGQPENNYKTTPPVLDSRGSFFLYSKLTVKKSRWQQGNVFSCSVMHEALHNHYTQKSLSLSP
light: DIVMTQSPATLSLSPGERATLSCTSSQSVYHANWLSWFQQKPGQPPKLLIYWASTLAYGVPSRFSGSGSGTDFTLTISSLQPEDAATYYCAGGYGGGRYAFGQGTKVEIKRTVAAPSVFIFPPSDEQLKSGTASVVCLLNNFYPREAKVQWKVDNALQSGNSQESVTEQDSKDSTYSLSSTLTLSKADYEKHKVYACEVTHQGLSSPVTKSFNRGEC
notes: copies: 2 + 2
B10: in assay [1], the “celluar uptake” value is 7.66 relative to SG1 = 1.00. Further, the “biacore IC binding (relative, SG1 = 1.00)” value in assay [2] is 2.04 relative to SG1.

B11: M103205H795-P1540m/M103202L889-SK1 (antibody, human IgG1, kappa, name in EU numbering)
heavy: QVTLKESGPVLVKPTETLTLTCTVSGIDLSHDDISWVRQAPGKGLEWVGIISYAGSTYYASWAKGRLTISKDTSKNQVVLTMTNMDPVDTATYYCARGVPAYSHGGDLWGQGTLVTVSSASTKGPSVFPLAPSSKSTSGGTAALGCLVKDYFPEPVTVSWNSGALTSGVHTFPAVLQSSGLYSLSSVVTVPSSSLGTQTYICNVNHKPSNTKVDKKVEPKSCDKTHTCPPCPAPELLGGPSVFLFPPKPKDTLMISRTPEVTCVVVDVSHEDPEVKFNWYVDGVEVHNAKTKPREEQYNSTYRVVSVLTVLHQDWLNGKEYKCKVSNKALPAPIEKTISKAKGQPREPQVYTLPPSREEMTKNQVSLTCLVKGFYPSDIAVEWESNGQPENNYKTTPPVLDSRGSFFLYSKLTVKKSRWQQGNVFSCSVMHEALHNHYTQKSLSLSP
light: DIVMTQSPATLSLSPGERATLSCTSSQSVYHANWLSWFQQKPGQPPKLLIYWASTLAYGVPSRFSGSGSGTDFTLTISSLQPEDAATYYCAGGYGGGRYAFGQGTKVEIKRTVAAPSVFIFPPSDEQLKSGTASVVCLLNNFYPREAKVQWKVDNALQSGNSQESVTEQDSKDSTYSLSSTLTLSKADYEKHKVYACEVTHQGLSSPVTKSFNRGEC
notes: copies: 2 + 2
On to B11, for which the “celluar uptake” value in assay [1] is 7.64 relative to SG1 = 1.00. The “biacore IC binding (relative, SG1 = 1.00)” value in assay [2] is 1.73 relative to SG1.

(Values after patent US20250076311A1 (Chugai, published 2025).)
